Data on five molecules can be found in patent US20250388696A1 (NAVIGO PROTEINS, published 2025).

In assay [1] the target is T1, Her2-Fc (human, UniProt P04626 23-652).
T1 construct: Coated in ELISA
The assay is described as follows: ELISA on coated Her2-Fc; 0 h in mouse serum. The procedure: (§1) High binding plates (Greiner, 781061) were immobilized with 2.5 μg/ml hFAP-Fc or 1.2 μg/ml Her2-Fc over night at 4° C. Dilution series of 3 μM to 0.07 pM of fusion proteins with binding specifically to Her2 were incubated in 100% human serum or 100% mouse serum for 24 h at 37° C. Dilution series of 3 µM to 0.2 pM or 1 μM to 0.01 fM of fusion proteins with binding specifically to hFAP were incubated in 100% human serum or 100% mouse serum for 24 h at 37° C. ELISA-plates were washed three times with PBST (PBS+0.1% Tween) and blocked with 3% BSA/0.5% Tween/PBS up to 2 h at room temperature (rt). After preincubation for 0 h or 24 h in the presence of serum the dilution series were incubated on ELISA-plates for up to 1 h at rt. Wells were washed with PBST and incubated with biotinylated anti-ubiquitin-antibody (1:300) for up to 1 h at rt. The binding was visualized with Streptavidin-HRP (1:5.000).
(§2) The fusion proteins comprise the albumin binding domain (referred to as HED) and the targeting moiety.

The target in assay [2] is T1, Her2-Fc. Put plainly: ELISA on coated Her2-Fc; after 24 h in human serum at 37 C. The procedure:
as §1, §2
(In general: ELISA stands for enzyme-linked immunosorbent assay.)

The target in assay [3] is T1, Her2-Fc. The assay is described as follows: ELISA on coated Her2-Fc; after 24 h in mouse serum at 37 C. The procedure:
as §1, §2

Assay [4] addresses T2, Her2 (immobilised on the SPR chip) (human, UniProt P04626 23-652, limits assumed).
T2 construct: construct not described; also called human epidermal growth factor receptor 2
Put plainly: SPR, Her2 immobilised on the chip, pH 7.3, 1:1 Langmuir fit. The procedure: (§3) Recombinant protein A, HSA, MSA or target (either ED-B or Her2) was immobilized on a High Capacity Amine sensor chip (Bruker) after NHS/EDC activation with a Sierra SPR-32 system (Bruker). The chip was equilibrated with SPR running buffer (PBS 0.05%, Tween pH 7.3). Injection of ethanolamine after target immobilization was used to block free NHS groups. To determine the binding of fusion proteins to FAP, the Fc-tagged target was injected with 60 or 30 nM to Protein A coupled spots followed by the injection of fusion proteins.
(§4) Binding proteins were applied to the chip in serial dilutions with a flow rate of 30 μl/min. Upon binding, analyte accumulated on the surface increasing the refractive index. This change in the refractive index was measured in real time and plotted as response or resonance units versus time. The association was performed for 120 seconds and the dissociation for 180 seconds. After each run, the chip surface was regenerated with 30 μl regeneration buffer (10 mM glycine pH 2.0 or pH 1.5) and equilibrated with running buffer. Binding studies were carried out using the Sierra SPR-32 system (Bruker); data evaluation was operated via the Sierra Analyser software, provided by the manufacturer, by the use of the Langmuir 1:1 model (RI=0).

A further assay has as its target T3, human serum albumin (human, UniProt P02768 25-609).
T3 construct: also called HSA
Put plainly: SPR, HSA immobilised on the chip, pH 7.3, 1:1 Langmuir fit. The procedure:
as §3, §4
On the technique in general: SPR reads the build-up and loss of mass on a sensor chip optically.

Assay [5] concerns the target T4, Her2 expressed on Sk-Br-3 cells (human, UniProt P04626 23-1255).
T4 construct: whole, on cells; also called human epidermal growth factor receptor 2
Put plainly: flow cytometry, dilution series on Sk-Br-3 cells. The procedure:
Her2 expressing Sk-Br-3-cells and HEK293-hFAP overexpressing cells were thawed, washed with medium containing FCS, subsequently washed with FACS blocking buffer (PBS/0.1% Sodium Azide/3% FCS) and 100 μl seeded in 96-well round bottom plates with a density of 1×10⁶ cells/ml. Dilution series from 10 µM to 8.6 fM (CID 217781, CID 217787) and a dilution series of 3 µM to 0.2 μM (CID 218466, CID 218467, 218512, CID 218513, CID 218514, CID 218515, CID 218516) were incubated on Her2-expressing Sk-Br-3-cells and dilution series from 1 μM to 0.07 μM of fusion proteins 218690 and 218702 were incubated on hFAP-overexpressing HEK293-cell line for 45 min at 4° C. After centrifugation the supernatants were removed and cells were washed with FACS blocking buffer and 100 μl/well rabbit anti-Strep-Tag antibody (GenScript; A00626), 1:300 diluted in FACS blocking buffer were added. After removal of the primary antibody goat anti-rabbit IgG Alexa Fluor 488 antibody (Invitrogen; A4008) was applied in a 1:1000 dilution in FACS blocking buffer. Flow cytometry measurement was conducted on the Guava easyCyte 5HT device from Merck-Millipore at excitation wavelength 488 nm and emission wavelength 525/30 nm. The * in table 2 refers to a fusion protein with the albumin binding domain as dimer (homo-dimer) and/or the targeting moiety as dimer.

Assay [6] deals with T1, Her2-Fc. The assay is described as follows: ELISA on coated Her2-Fc; 0 h in human serum. The procedure:
as §1, §2

Assay [7] concerns the target T1, Her2-Fc. Put plainly: ELISA on coated Her2-Fc; 24 h in mouse serum at 37 C. The procedure: as §1, §2
For assay [8], the target named is T1, Her2-Fc. The assay is described as follows: ELISA on coated Her2-Fc; 24 h in human serum at 37 C. The procedure: as §1, §2
In assay [9] the target is T1, Her2-Fc. The assay is described as follows: ELISA on coated Her2-Fc; KD 24 h against KD 0 h, mouse serum. On the procedure: as §1, §2
The target of assay [10] is T1, Her2-Fc. The assay is described as follows: ELISA on coated Her2-Fc; KD 24 h against KD 0 h, human serum. On the procedure:
as §1, §2

For assay [11], the target named is T5, human fibroblast activation protein (hFAP) expressed on the surface of HEK293-hFAP cells (human, UniProt Q12884 1-760).
T5 construct: whole, on cells; FAP overexpressing HEK293 cell line
T5 sequence (looked up): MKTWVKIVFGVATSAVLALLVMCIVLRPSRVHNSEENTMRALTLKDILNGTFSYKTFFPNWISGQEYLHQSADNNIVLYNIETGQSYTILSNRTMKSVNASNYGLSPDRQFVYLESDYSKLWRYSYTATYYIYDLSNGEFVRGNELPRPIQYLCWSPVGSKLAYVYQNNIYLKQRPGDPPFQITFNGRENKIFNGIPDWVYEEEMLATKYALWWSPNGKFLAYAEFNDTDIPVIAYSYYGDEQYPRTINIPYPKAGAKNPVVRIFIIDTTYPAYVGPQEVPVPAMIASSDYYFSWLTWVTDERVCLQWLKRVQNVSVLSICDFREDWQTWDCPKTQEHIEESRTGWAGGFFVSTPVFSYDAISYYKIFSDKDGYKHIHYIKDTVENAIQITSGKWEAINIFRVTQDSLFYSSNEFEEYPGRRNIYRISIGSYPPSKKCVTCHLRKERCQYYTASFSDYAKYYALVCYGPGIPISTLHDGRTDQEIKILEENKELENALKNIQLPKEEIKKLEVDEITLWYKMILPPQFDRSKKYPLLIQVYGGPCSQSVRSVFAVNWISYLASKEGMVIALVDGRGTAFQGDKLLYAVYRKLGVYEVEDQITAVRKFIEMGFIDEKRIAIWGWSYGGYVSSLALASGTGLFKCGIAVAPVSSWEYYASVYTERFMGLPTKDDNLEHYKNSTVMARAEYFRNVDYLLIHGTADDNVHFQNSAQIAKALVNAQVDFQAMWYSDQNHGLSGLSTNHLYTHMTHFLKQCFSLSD
The assay is described as follows: flow cytometry on HEK293-hFAP cells. The procedure: Fusion proteins were tested with a concentration of 1 μM, 100 nM, 10 nM, 1 nM or 0.1 nM on hFAP expressing HEK293-hFAP-cells. To exclude an unspecific binding, fusion proteins were also incubated on control cells HEK293-pEntry with the same concentrations. […] Supernatants were removed after 45 min, cells were washed in blocking buffer and 100 μl/well rabbit anti-StrepTag antibody (GenScript; A00626), 1:300 diluted in FACS blocking buffer were added. […] Flow cytometry measurement was conducted on the Guava easyCyte 5HT device from Merck-Millipore at excitation wavelength 488 nm and emission wavelength 525/30 nm.
(Flow cytometry measures light scatter and fluorescence of single cells or particles in a stream.)

T3 sequence (P02768 25-609 limits assumed): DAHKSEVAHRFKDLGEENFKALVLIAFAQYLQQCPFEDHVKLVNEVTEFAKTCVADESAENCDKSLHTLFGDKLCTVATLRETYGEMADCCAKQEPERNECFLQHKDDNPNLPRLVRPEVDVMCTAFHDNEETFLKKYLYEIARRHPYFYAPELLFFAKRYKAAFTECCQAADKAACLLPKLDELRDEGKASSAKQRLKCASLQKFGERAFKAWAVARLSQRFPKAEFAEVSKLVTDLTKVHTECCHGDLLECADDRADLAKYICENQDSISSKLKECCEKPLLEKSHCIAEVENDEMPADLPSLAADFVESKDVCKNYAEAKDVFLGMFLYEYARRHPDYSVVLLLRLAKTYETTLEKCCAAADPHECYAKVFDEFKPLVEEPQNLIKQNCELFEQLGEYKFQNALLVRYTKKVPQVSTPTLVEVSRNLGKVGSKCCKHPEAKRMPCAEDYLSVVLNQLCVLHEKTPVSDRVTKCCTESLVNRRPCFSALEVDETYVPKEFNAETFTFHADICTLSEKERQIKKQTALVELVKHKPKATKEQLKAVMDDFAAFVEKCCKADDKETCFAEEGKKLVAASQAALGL

B1: fusion protein 218515 (designed binder, not shown: small tags and cut ends)
chain (part 1 of 2): not shown
chain (part 2 of 2): LAEAKVLALKELDKYGISNYYKNLINNAKTIEGVKALKAQIVAA
notes: also called CID 218515
Usually Kd stands for the concentration at which binding is half-saturated. Regarding B1, the Kd with Her2-Fc [1] was 0.18 nM; in assay [4], 2.5 nM; in the assay with human serum albumin, 9.1 nM; in assay [5] it was 1.47 nM; with Her2-Fc [6] it was 0.34 nM; with Her2-Fc [7], 0.21 nM. For the same molecule, in the assay with Her2-Fc [8], binding was characterised by a dissociation constant (Kd) of 0.28 nM. In addition, the “max binding after 24 h [%]” value with Her2-Fc [2] came out at 96.1%; in the assay with Her2-Fc [3], 108%. In addition, the “increase of KD vs target [fold]” value with Her2-Fc [9] was 1.16 fold; with Her2-Fc [10], 0.82 fold.

B2: fusion protein 218691 (designed binder, not shown: small tags and cut ends)
chain (part 1 of 2): not shown
chain (part 2 of 2): LAEAKVLALKELDKYGISNYYKNLINNAKTIEGVKALKAQIVAA
notes: also called CID 218691
With B2, the binding result in assay [11] is “binds”.

B3: fusion protein 218699 (designed binder, not shown: small tags and cut ends)
chain (part 1 of 2): not shown
chain (part 2 of 2): LAEAKVLALKELDKYGISNYYKNLINNAKTVEGVKALKEAIVAA
notes: also called CID 218699
With B3, the binding result in assay [11] is “binds”.

B4: fusion protein 218704 (designed binder, not shown: small tags and cut ends)
chain (part 1 of 2): not shown
chain (part 2 of 2): LAEAKVLAIKELDKAGISNYYFNLINNAKTVEGVKDLKAQIVAA
notes: also called CID 218704
As for B4, the binding result in assay [11] is “binds”.

B5: fusion protein 218516 (designed binder, not shown: small tags and cut ends)
chain (part 1 of 2): not shown
chain (part 2 of 2): LAEAKVLAIKELDKAGISNYYFNLINNAKTVEGVKALKAQIVAA
notes: also called CID 218516
As to B5, the dissociation constant Kd was 0.17 nM in the assay with Her2-Fc [1]; 2.4 nM in assay [4]; 10.9 nM with human serum albumin; 2.57 nM in assay [5]; 0.39 nM with Her2-Fc [6]; 0.2 nM with Her2-Fc [7]. Moreover, the Kd in the assay with Her2-Fc [8] came to 0.28 nM. In addition, the “max binding after 24 h [%]” value with Her2-Fc [2] worked out at 98.9%; with Her2-Fc [3], 101%. Moreover, the “increase of KD vs target [fold]” value with Her2-Fc [9] came out at 1.21 fold; in the assay with Her2-Fc [10], 0.71 fold.
